The data set in a line: soluble on expression in E. coli; label from the status in PepcDB or PDB records.
For the sequence “MGSDKIHHHHHHMSIVQAKFEAKETSFHVEGYEKIEYDLVYVDGIFEIQNSALADVYQGFGRCLAIVDANVSRLYGNQIQAYFQYYGIELRLFPITITEPDKTIQTFERVIDVFADFKLVRKEPVLVVGGGLITDVVGFACSTYRRSSNYIRIPTTLIGLIDASVAIKVAVNHRKLKNRLGAYHASRKVFLDFSLLRTLPTDQVRNGMAELVKIAVVAHQEVFELLEKYGEELLRTHFGNIDATPEIKEIAHRLTYKAIHKMLELEVPNLHELDLDRVIAYGHTWSPTLELAPRLPMFHGHAVNVDMAFSATIAARRGYITIAERDRILGLMSRVGLSLDHPMLDIDILWRGTESITLTRDGLLRAAMPKPIGDCVFVNDLTREELAAALADHKELCTSYPRGGEGVDVYPVYQKELIGSVK”, the “soluble on expression in E. coli” value was “not soluble”.

With “MAHHHHHHMNLNVSKDVNNYMKINGIIKKVDIKRYYNKKLNNWSYEDNAKEFDKKDEKEYGSKYEYNNKFINEEEKKDEEKKYRYDEKIHKGLYSEDNSTSMNNRYNNNESTYKMPKEILNRHEKIDLNSLPIDEEIINNLKIILNIEKLYMYQYIIYNEILKNSKHLLIYNKTGTGKTLSYLLPLIQKLINDKFDCNKKVLIITQNIYLCKQLYIYILSIYPTLNVCILSDEKESYNMNNNINNDIIVNIKRNNINPNDKENNDMCDEKYGIHFYLCTPNKLEYFIKNYKNKSRNDKNVMNNILNNINTIVIDEFDYIVEYRKNILNFFFKKDLFNEIHNNNNIRDKNRFNHDIFNKSNYNIYLFTANINEVIKKKIYEHLNGFVFFDFINGIKEHIQKQVAEQHNFNIDVLKNSENVVQLLNKENKNESLCNLNITHFVCKINSASKYKYVCYFLEEFFFHKQKISQKVYNDMVYDEYDKLNYRNMIPMEENKFVNNSEKEGNMKRSNADKINKCIIFANTKEEVEKLYEISLLKPHAVMMHSELLTIQKNENINLFKVGKKNVLITTDIISRGLDIDNVIFILNYSPPTSPNDYIHRSGRTGRGKEKGICLTMYHKYEYRNVDKIMKYTKNKFEVILCPK”, the “soluble on expression in E. coli” value was “not soluble”. Take “MVSCENLWQQALAILATQLTKPAFDTWIKASVLISLGDGVATIQVENGFVLNHLQKSYGPLLMEVLTDLTGQEITVKLITDGLEPHSLIGQESSLPMETTPKNATALNGKYTFSRFVVGPTNRMAHAASLAVAESPGREFNPLFLCGGVGLGKTHLMQAIAHYRLEMYPNAKVYYVSTERFTNDLITAIRQDNMEDFRSYYRSADFLLIDDIQFIKGKEYTQEEFFHTFNSLHEAGKQVVVASDRAPQRIPGLQDRLISRFSMGLIADIQVPDLETRMAILQKKAEYDRIRLPKEVIEYIASHYTSNIRELEGALIRAIAYTSLSNVAMTVENIAPVLNPPVEKVAAAPETIITIVAQHYQLKVEELLSNSRRREVSLARQVGMYLMRQHTDLSLPRIGEAFGGKDHTTVMYSCDKITQLQQKDWETSQTLTSLSHRINIAGQAPESLEHHHHHH”: the “soluble on expression in E. coli” value was “not soluble”.

For “MIPLLGIISLSLNISGPKYRLEMGLGGKVAVDSTFSNEGVQKATEPNGTKVTYYYGGESKGFIEFSSDWKLKINEKCDINFGPRIKLLNISHIAKNIFFFLGITAGAGFEFNYNIRENVKFYTGIDGLIGMGTFMNLNNSSSKDTESKKISVIYDFIPESNVTVGTKINDKYNVGLFVDILQGYFGLKAGYTF”, the “soluble on expression in E. coli” value is reported as “not soluble”.

In the case of “MTKAKRTYEPWYWANEHTRLYMRRGYLLPGVSVEERVKEIAQRAEALTKVEGFGRKFLEYMARGWYSLATPIWANYGLRRGLPISCYGTYVEDDTASILRAVAEVGMMSKQGGGTSLYLGRLRPRGAPIRDNGESNGSFAFASLFDRVIEVFNQGSTRRGQCAAYLDVEHPDLEEWLSIQREHSPVQSLFWGVSVGDRWLEEMIAGDGEKRARWAKILKSRAEVGIPYLFFRDNANQKAPEVFRALGKTIWASNLCTEIMLPSSEEESFVCCLSSLNLLHYEEWKDTDAVETLVIFLDSVLDDFIEKAEGIPYMERAVRFAKRYRAIGLGVLGWHSYLQSQRIPLESPEAFRRNAEIFKTIRERAEEASRWLRKRHPEDELAGVGELKERRNATLLAIAPTKSSAFILGQVSPSIEPYTSNYYLKDLQKARVPFKNPFLEEVLREKGKDEEKVWRSILEHNGSVQHLDFLTDEEKAVFKTFAEISQMTLVNLAASRQKHIDQGQSLNLVIHPEAPPRDVNALVLHAWRSGLKALYYQFSQSVAQAYSRDLLLSCQACEG”, the “soluble on expression in E. coli” value is recorded as “soluble”. As to “GPGSMDTLTHLSHTLREAMSDIVPESHPEHPFNLIPELCRKFYDLGWATGTGGGISIKMGENYYIAPSGVQKERIKPNEIFVLNASQDVVEEPRTEKQLKISECTPLFFNAYRMRGAGACLHTHSANCVLISLLCDREFRISHIEMIKGIINNETKKALGFRDTLVIPIIENTDFERDLTASMAECMERYPESCAVLVRRHGMYVWSDTWQKAKGAVECIDYLMGLAIRMRTLGLEWEPKDVK”, the “soluble on expression in E. coli” value is “soluble”. The value for “MGSCCSCLNRDSVPDNHPTKFKVTNVDDEGVELGSGVMELTQSELVLHLHRREAVRWPYLCLRRYGYDSNLFSFESGRRCQTGQGIFAFKCSRAEEIFNLLQDLMQCNSINVMEEPVIITRNSHPAELDLPRAPQPPNALGYTVSSFSNGCPGEGPRFSAPRRLSTSSLRHPSLGEESTHALIAPDEQSHTYVNTPASEDDHRRGRHCLQPLPEGQAPFLPQARGPDQRDPQVFLQPGQVKFVLGPTPARRHMVKCQGLCPSLHDPPHHNNNNEAPSECPAQPKCTYENVTGGLWRGAGWRLSPEEPGWNGLAHRRAALLHYENLPPLPPVWESQAQQLGGEAGDDGDSRDGLTPSSNGFPDGEEDETPLQKPTSTRAAIRSHGSFPVPLTRRRGSPRVFNFDFRRPGPEPPRQLNYIQVELKGWGGDRPKGPQNPSSPQAPMPTTHPARSSDSYAVIDLKKTVAMSNLQRALPRDDGTARKTRHNSTDLPL” was “soluble”; that for “MRCPRCHHNNSRVIDSRQADDGRAIRRRRECENCSYRFTTFERIEAAPLLVIKKNGDREEFNRDKILRGLIRSAEKRPVAMEQMVQIVDNVENRVRSLGENEVSTTLIGEYVMEDLVNLDEIAYIRFASVYRQFKDMSVFLKELQDIVDKAKSSSPDSEN” was “not soluble”; that for “MPKRSKEDTEITIQKIMDAVVDQLLRLGYDKMSYTTLSQQTGVSRTGISHHFPKKTDFTAALDGRIFKMFIEHLEFEKGLDAFSQSWIKALEDSEFLAILRLLFHHIVTSESAHEFAANGIDRLYKMVESQFGSGGDKELEWLIGRSLIQMSK” was “not soluble”. For “MNNGKLFLVGTPIGNLKDITLRALETLQNCDVIAAEDTRQSLKLLNHFDIKKPLISYHKFNENNRSSELMDMVREGKKVALVTDAGMPGISDPGSVIVEKFIENNLEFEVIPG”, the “soluble on expression in E. coli” value was “not soluble”. With “MAHHHHHHMKGVIFCLVVLLWRQAWVSSKSHKCDFTKEKYLLSGEKEVSCEIDANPSDDITFICPNKIDSLCFHTVNISKNINQNKSTMSIQDLLYGSVVYGNTLFISPYVRTNTPFYCFCNLDTVTIQKFLKINRFLKDDDELSEADVMKHLKGGNVSEAQADEYLNKALNRFKKMKDLSKFFNDQADNTTKLNLPKSLNIPNDILNYDVYNSSNNRNDIVVKDEVTNKQIISKRGIMSVFVRSNNNVIKGCDFGNNNKNYFSHPISVAGKVNNKVCKIQGKPGELVGFKCAFEENGKVEPPNCFDQVLHKNKVTDLKTLIPGYASYTNKHSSKYPYYLKIPHFVNEQYTIQCKCKSNNSQNEYTFELDIQPGESEVVLNSFKTS”, the “soluble on expression in E. coli” value was “not soluble”. On to “MGSSHHHHHHSSGLVPRGSHMAPTEIKPEDDILGRARVRDTPELEAYYDDLAKIETGALWTVANDIEPWEPTPKSAPVHWKWSDLRREVLRAIDLVRPEDAGRRVVYLRNPQRKDVSAACGWLFSGIQTMKAGERAGAHRHAASALRFIMEGSGAYTIVDGHKVELGANDFVLTPNGTWHEHGILESGTECIWQDGLDIPLTNCLEANFYEVHPNDYQTTDIPLNDSPLTYGGPALLPQLDKWDKPYSPLLKYSWEPTYEALLNYAKASDGSPYDGLILRYTNPQTGGHPMLTMGASMQMLRPGEHTKAHRHTGNVIYNVAKGQGYSIVGGKRFDWSEHDIFCVPAWTWHEHCNTQERDDACLFSFNDFPVMEKLGFWAEQALEDNGGHQIVAD”, for which the “soluble on expression in E. coli” value is recorded as “soluble”. Take “MNIRQAKTSDAAAIAPLFNQYREFYRQASDLQGAEAFLKARLENHESVILIAEENGEFIGFTQLYPTFSSVSMKRIYILNDLFVVPHARTKGAGGRLLSAAKDYAGQNGAKCLTLQTEHHNRKARSLYEQNGYEEDTGFVHYCLNVPAK”: the “soluble on expression in E. coli” value is recorded as “soluble”. Turning to “MFPSFLRRTAAKNGSYANEISSSIIINRPAERLFDLWRKPETLPILMGHFASIEILNHTDSNWRINTPIGSLIEWQARIIDEKPGEYIHWRSLEGARVPNEGRLSFQPAASEAGTAVTLTIRYNPPGGLIGKKIGQMFDMFSRDMLTKTLYRFKKLAEDERVLEHHHHHH”, the “soluble on expression in E. coli” value is on record as “not soluble”.

As for “MAHHHHHHMIDEKSKMYSKNDEFNVKKEMDMNLKCDNVNLDIWNTSFLNNETLNEDIFIHIGNKLLKMYYTTNHNIPSETLYSLLYEMKNGYNNVPYHNSIHAAMVTHHCNVLVSNLNTANILRDNELGALFVASLGHDIGHFGRTNIFLKNCCNFLSIIYNDKSILENYHCSYLFNILLKDENNIFKNEDPKCLLALRQQIIELILATDMSKHIKILAQFRIKSIKIKSYIEKNIILCLKMIIKAADLSHNCVDWSEHYQWVKRLVNEFYYEGDELFQMGYKINPLFDRNCHNNFIQIQRTFLKELVYPLIISLKTLDNTSITQDMINNVKRNYSKWTKIEKCQIKKKKYLNELLCNIPDNWARVYYPNLNIY”, the “soluble on expression in E. coli” value is listed as “not soluble”.

For “MYHVPLIPRDAGREETIFRINQSLQKLLRVSDEIFDRVEHRITRIHGKAEAIDRRTEVLEKKLESLQESDKVITFTLPRQLPKLPEEPPTSTSLFRINIDTEHFPGSEELPAFRRADDHVLRPCEPIDFTYELNKPDKFFLTSQVLKEYEQKGWERYKKRLLGGLRELSRSPEHIAELFYAGTSIPAFEGVSGDFSKKALDADDDGGTSRSGRTTDELAQLRLHEQLLEDTALSSTLMQEDSLDDNHPLAFRINFNEKKKKTAKMVEMPDSLPNLKGHAHDFTLRDPEIDEDRLLDILPADDQIPEASEPTEAEADAPTTFILPPPPPPMKLDPSPQPAATPVEITEIPPIISPPAPPPPPPPPPPPPPPQTPSASSSVTFSPTKSVDGGRSDLMAAIRAAGGAGNAKLSRIAEKPKRKGKFDGILESSALLGASETPRNSAPAPDGGGGGGDLMSALSKALDARRKAINGKVEAQPPAKVSSTIPAPPNFDDEEWD”, the “soluble on expression in E. coli” value was “not soluble”.

Consider “PLIAVFIGSILFDYRLAQETADTAYDHSLNNAALDIAAYIQTVGLSPKLRLTPEAEAMLRHDAVDKIFFAVRDSNKQLLIGDAQLPAYPGAIHKRPVFIDDVYQGEKIRATTQLIMVDANEITITVAETMREREHASNRIL”, for which the “soluble on expression in E. coli” value was “not soluble”.

In the case of “MAHHHHHHMLRSTLTSLNTFLTSSVATPPISVIRTGPKWWADPERMVRQKLMYFTLGVDQLPLRRTAVIQRDLQRFHMCKPPPRVGDSTGYKRSRAAQLNTWYRRIQYQEYHMQHLFTRHVWGLLRVYPGNTTKIQGKADDGYVGYDSVPFHRYNRAPLPFPARELYERRK”, the “soluble on expression in E. coli” value was “not soluble”.

Take “MGSDKIHHHHHHEKAVTHSESKEFKPETVKIGEDGELNIVPLYAPYQTYLKASLKADTSETDSKNYAEYVLRYIDKIGEKENFDPTTLETFFMLKATAYEQDMLNQTNELMKQHDEIKDIITKNYSASYEALPKKKATIFIAPSNLEFWSMTDPLAGVSGAAFQDSIIIQLNPNFDKEVLAYTIAHEYHHLVLNDTPELSRIDTSLDSVIFEGKADAFADQIVTDVSPPWNIPMDDTTKKHVARLIGNGEADYQEITMGNTEKDIPLWSRYSLGRDILTHHLKANPDLSIKTWTYEENHAILNGYKYQKLLE”: the “soluble on expression in E. coli” value is listed as “not soluble”.

Source of the values: the DeepSol protein solubility set.
